How the values were obtained:
[1] = biological target: binding partner of C5A (XPA23); experiment: Biacore K-off
[2] = biological target: binding partner of C5A (XPA23); experiment: Biacore

fold difference in affinity vs original [1] [fold]	fold difference in affinity vs original [2] [fold]	fold affinity vs original [2] [fold]	Binder
0.91	0.91	–	C5A (XPA23) VH S30L (antibody, V domains shown) VH: EVQLLESGGGLVQPGGSLRLSCAASGFTFLKYFMFWVRQAPGKGLEWVSVISPSGGMTRYADSVKGRFTISRDNSKNTLYLQMNSLRAEDTAVYYCARVGYGGNSDYWGQGTLVTVSS VL: DIQMTQSPSSVSASVGDRLTIICRASQDINRWLAWYQQTPGNAPKLLIHSATSLQSGVPSRFSGSGSGTDFTLTINSLQPEDFATYYCQQADSFPLTFGGGTKVEIK
0.97	–	0.97	C5A (XPA23) VH F33N (antibody, V domains shown) VH: EVQLLESGGGLVQPGGSLRLSCAASGFTFSKYNMFWVRQAPGKGLEWVSVISPSGGMTRYADSVKGRFTISRDNSKNTLYLQMNSLRAEDTAVYYCARVGYGGNSDYWGQGTLVTVSS VL: DIQMTQSPSSVSASVGDRLTIICRASQDINRWLAWYQQTPGNAPKLLIHSATSLQSGVPSRFSGSGSGTDFTLTINSLQPEDFATYYCQQADSFPLTFGGGTKVEIK
0.85	–	0.85	C5A (XPA23) VH F33K (antibody, V domains shown) VH: EVQLLESGGGLVQPGGSLRLSCAASGFTFSKYKMFWVRQAPGKGLEWVSVISPSGGMTRYADSVKGRFTISRDNSKNTLYLQMNSLRAEDTAVYYCARVGYGGNSDYWGQGTLVTVSS VL: DIQMTQSPSSVSASVGDRLTIICRASQDINRWLAWYQQTPGNAPKLLIHSATSLQSGVPSRFSGSGSGTDFTLTINSLQPEDFATYYCQQADSFPLTFGGGTKVEIK
0.77	0.77	–	C5A (XPA23) VH S30A (antibody, V domains shown) VH: EVQLLESGGGLVQPGGSLRLSCAASGFTFAKYFMFWVRQAPGKGLEWVSVISPSGGMTRYADSVKGRFTISRDNSKNTLYLQMNSLRAEDTAVYYCARVGYGGNSDYWGQGTLVTVSS VL: DIQMTQSPSSVSASVGDRLTIICRASQDINRWLAWYQQTPGNAPKLLIHSATSLQSGVPSRFSGSGSGTDFTLTINSLQPEDFATYYCQQADSFPLTFGGGTKVEIK
1.08	1.08	–	C5A (XPA23) VH K31L (antibody, V domains shown) VH: EVQLLESGGGLVQPGGSLRLSCAASGFTFSLYFMFWVRQAPGKGLEWVSVISPSGGMTRYADSVKGRFTISRDNSKNTLYLQMNSLRAEDTAVYYCARVGYGGNSDYWGQGTLVTVSS VL: DIQMTQSPSSVSASVGDRLTIICRASQDINRWLAWYQQTPGNAPKLLIHSATSLQSGVPSRFSGSGSGTDFTLTINSLQPEDFATYYCQQADSFPLTFGGGTKVEIK
0.77	–	0.77	C5A (XPA23) VH F33Y (antibody, V domains shown) VH: EVQLLESGGGLVQPGGSLRLSCAASGFTFSKYYMFWVRQAPGKGLEWVSVISPSGGMTRYADSVKGRFTISRDNSKNTLYLQMNSLRAEDTAVYYCARVGYGGNSDYWGQGTLVTVSS VL: DIQMTQSPSSVSASVGDRLTIICRASQDINRWLAWYQQTPGNAPKLLIHSATSLQSGVPSRFSGSGSGTDFTLTINSLQPEDFATYYCQQADSFPLTFGGGTKVEIK
0.74	0.74	–	C5A (XPA23) VH K31I (antibody, V domains shown) VH: EVQLLESGGGLVQPGGSLRLSCAASGFTFSIYFMFWVRQAPGKGLEWVSVISPSGGMTRYADSVKGRFTISRDNSKNTLYLQMNSLRAEDTAVYYCARVGYGGNSDYWGQGTLVTVSS VL: DIQMTQSPSSVSASVGDRLTIICRASQDINRWLAWYQQTPGNAPKLLIHSATSLQSGVPSRFSGSGSGTDFTLTINSLQPEDFATYYCQQADSFPLTFGGGTKVEIK
0.04	–	0.04	C5A (XPA23) VH Y32N (antibody, V domains shown) VH: EVQLLESGGGLVQPGGSLRLSCAASGFTFSKNFMFWVRQAPGKGLEWVSVISPSGGMTRYADSVKGRFTISRDNSKNTLYLQMNSLRAEDTAVYYCARVGYGGNSDYWGQGTLVTVSS VL: DIQMTQSPSSVSASVGDRLTIICRASQDINRWLAWYQQTPGNAPKLLIHSATSLQSGVPSRFSGSGSGTDFTLTINSLQPEDFATYYCQQADSFPLTFGGGTKVEIK

Continued, binder first:

Binder	fold difference in affinity vs original [1] [fold]	fold difference in affinity vs original [2] [fold]	fold affinity vs original [2] [fold]
C5A (XPA23) VH Y32T (antibody, V domains shown) VH: EVQLLESGGGLVQPGGSLRLSCAASGFTFSKTFMFWVRQAPGKGLEWVSVISPSGGMTRYADSVKGRFTISRDNSKNTLYLQMNSLRAEDTAVYYCARVGYGGNSDYWGQGTLVTVSS VL: DIQMTQSPSSVSASVGDRLTIICRASQDINRWLAWYQQTPGNAPKLLIHSATSLQSGVPSRFSGSGSGTDFTLTINSLQPEDFATYYCQQADSFPLTFGGGTKVEIK	0.8	0.8	–
C5A (XPA23) VH S30W (antibody, V domains shown) VH: EVQLLESGGGLVQPGGSLRLSCAASGFTFWKYFMFWVRQAPGKGLEWVSVISPSGGMTRYADSVKGRFTISRDNSKNTLYLQMNSLRAEDTAVYYCARVGYGGNSDYWGQGTLVTVSS VL: DIQMTQSPSSVSASVGDRLTIICRASQDINRWLAWYQQTPGNAPKLLIHSATSLQSGVPSRFSGSGSGTDFTLTINSLQPEDFATYYCQQADSFPLTFGGGTKVEIK	0.77	–	0.77
C5A (XPA23) VH F33T (antibody, V domains shown) VH: EVQLLESGGGLVQPGGSLRLSCAASGFTFSKYTMFWVRQAPGKGLEWVSVISPSGGMTRYADSVKGRFTISRDNSKNTLYLQMNSLRAEDTAVYYCARVGYGGNSDYWGQGTLVTVSS VL: DIQMTQSPSSVSASVGDRLTIICRASQDINRWLAWYQQTPGNAPKLLIHSATSLQSGVPSRFSGSGSGTDFTLTINSLQPEDFATYYCQQADSFPLTFGGGTKVEIK	0.78	0.78	–
C5A (XPA23) VH F33D (antibody, V domains shown) VH: EVQLLESGGGLVQPGGSLRLSCAASGFTFSKYDMFWVRQAPGKGLEWVSVISPSGGMTRYADSVKGRFTISRDNSKNTLYLQMNSLRAEDTAVYYCARVGYGGNSDYWGQGTLVTVSS VL: DIQMTQSPSSVSASVGDRLTIICRASQDINRWLAWYQQTPGNAPKLLIHSATSLQSGVPSRFSGSGSGTDFTLTINSLQPEDFATYYCQQADSFPLTFGGGTKVEIK	0.92	–	0.92
C5A (XPA23) VH F33E (antibody, V domains shown) VH: EVQLLESGGGLVQPGGSLRLSCAASGFTFSKYEMFWVRQAPGKGLEWVSVISPSGGMTRYADSVKGRFTISRDNSKNTLYLQMNSLRAEDTAVYYCARVGYGGNSDYWGQGTLVTVSS VL: DIQMTQSPSSVSASVGDRLTIICRASQDINRWLAWYQQTPGNAPKLLIHSATSLQSGVPSRFSGSGSGTDFTLTINSLQPEDFATYYCQQADSFPLTFGGGTKVEIK	0.86	–	0.86
C5A (XPA23) VH K31W (antibody, V domains shown) VH: EVQLLESGGGLVQPGGSLRLSCAASGFTFSWYFMFWVRQAPGKGLEWVSVISPSGGMTRYADSVKGRFTISRDNSKNTLYLQMNSLRAEDTAVYYCARVGYGGNSDYWGQGTLVTVSS VL: DIQMTQSPSSVSASVGDRLTIICRASQDINRWLAWYQQTPGNAPKLLIHSATSLQSGVPSRFSGSGSGTDFTLTINSLQPEDFATYYCQQADSFPLTFGGGTKVEIK	0.84	–	0.84
C5A (XPA23) VH K31V (antibody, V domains shown) VH: EVQLLESGGGLVQPGGSLRLSCAASGFTFSVYFMFWVRQAPGKGLEWVSVISPSGGMTRYADSVKGRFTISRDNSKNTLYLQMNSLRAEDTAVYYCARVGYGGNSDYWGQGTLVTVSS VL: DIQMTQSPSSVSASVGDRLTIICRASQDINRWLAWYQQTPGNAPKLLIHSATSLQSGVPSRFSGSGSGTDFTLTINSLQPEDFATYYCQQADSFPLTFGGGTKVEIK	0.81	0.81	–
C5A (XPA23) VH S30I (antibody, V domains shown) VH: EVQLLESGGGLVQPGGSLRLSCAASGFTFIKYFMFWVRQAPGKGLEWVSVISPSGGMTRYADSVKGRFTISRDNSKNTLYLQMNSLRAEDTAVYYCARVGYGGNSDYWGQGTLVTVSS VL: DIQMTQSPSSVSASVGDRLTIICRASQDINRWLAWYQQTPGNAPKLLIHSATSLQSGVPSRFSGSGSGTDFTLTINSLQPEDFATYYCQQADSFPLTFGGGTKVEIK	0.08	0.08	–
C5A (XPA23) VH S30G (antibody, V domains shown) VH: EVQLLESGGGLVQPGGSLRLSCAASGFTFGKYFMFWVRQAPGKGLEWVSVISPSGGMTRYADSVKGRFTISRDNSKNTLYLQMNSLRAEDTAVYYCARVGYGGNSDYWGQGTLVTVSS VL: DIQMTQSPSSVSASVGDRLTIICRASQDINRWLAWYQQTPGNAPKLLIHSATSLQSGVPSRFSGSGSGTDFTLTINSLQPEDFATYYCQQADSFPLTFGGGTKVEIK	0.13	0.13	–
C5A (XPA23) VH F33S (antibody, V domains shown) VH: EVQLLESGGGLVQPGGSLRLSCAASGFTFSKYSMFWVRQAPGKGLEWVSVISPSGGMTRYADSVKGRFTISRDNSKNTLYLQMNSLRAEDTAVYYCARVGYGGNSDYWGQGTLVTVSS VL: DIQMTQSPSSVSASVGDRLTIICRASQDINRWLAWYQQTPGNAPKLLIHSATSLQSGVPSRFSGSGSGTDFTLTINSLQPEDFATYYCQQADSFPLTFGGGTKVEIK	0.73	–	0.73
C5A (XPA23) VH K31F (antibody, V domains shown) VH: EVQLLESGGGLVQPGGSLRLSCAASGFTFSFYFMFWVRQAPGKGLEWVSVISPSGGMTRYADSVKGRFTISRDNSKNTLYLQMNSLRAEDTAVYYCARVGYGGNSDYWGQGTLVTVSS VL: DIQMTQSPSSVSASVGDRLTIICRASQDINRWLAWYQQTPGNAPKLLIHSATSLQSGVPSRFSGSGSGTDFTLTINSLQPEDFATYYCQQADSFPLTFGGGTKVEIK	0.05	–	0.05
C5A (XPA23) VH F33Q (antibody, V domains shown) VH: EVQLLESGGGLVQPGGSLRLSCAASGFTFSKYQMFWVRQAPGKGLEWVSVISPSGGMTRYADSVKGRFTISRDNSKNTLYLQMNSLRAEDTAVYYCARVGYGGNSDYWGQGTLVTVSS VL: DIQMTQSPSSVSASVGDRLTIICRASQDINRWLAWYQQTPGNAPKLLIHSATSLQSGVPSRFSGSGSGTDFTLTINSLQPEDFATYYCQQADSFPLTFGGGTKVEIK	0.78	–	0.78

— patent publication US20110118447A1
